Measured values as given in publication PMC11365436.

What was measured:
[1] = molecular target: strep-CsoS1A (hexameric shell protein) (Halothiobacillus neapolitanus) (UniProt P45689)
[2] = molecular target: strep-CsoS1A (hexameric shell protein) (Halothiobacillus neapolitanus) (UniProt P45689); test: native gel or EMSA; native 1% agarose protein gel (Tris-acetate-EDTA); proteins mixed in 50 mM Hepes, 150 mM NaCl, 30 min at room temperature; 2.5 μg CsoS1A or BSA, 8.4 μg CsoS2 or 3.5 μg MR variant (0.09 nmol); run 70 min at 60 V in 25 mM Tris, 200 mM glycine, pH 7.5; stained, quantified in FIJI

Sequence of UniProt P45689 (P45689 whole entry): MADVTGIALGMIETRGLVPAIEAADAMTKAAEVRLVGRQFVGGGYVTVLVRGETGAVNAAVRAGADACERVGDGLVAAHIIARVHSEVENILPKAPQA

Substance: 6xHis-CsoS2B (full-length CsoS2, long form) (from UniProt O85041-1 1-869) (natural protein)
- turbidity with 9 μM CsoS1A, compared to wtMR (fold against wtMR) [1]: 5
- percent of shell bound and shifted from its control position [2]: > 90%

Substance: 6xHis-wtMR-strep (WT middle region of CsoS2, repeats 1 to 6) (domain or fragment)
- percent less mobility shift of shell than with full-length CsoS2 [2]: 25%
